{"source": "the nanobody polyreactivity screen of Harvey et al. (2022)", "test": "yeast display, Sf9 membrane polyspecificity reagent, FACS + sequencing; frameworks hold sequencing errors", "summary_of_the_method": "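Using colony PCR, genes from sorted yeast display clones were amplified, then sequenced on MiSeq at 2 × 250 and filtered by CDR length. The clones had been stained with 10% biotinylated, detergent-solubilized Sf9 membrane reagent for 1 hour at 4 °C and sorted by FACS into low and high (top ~1%) gates on anti-HA and streptavidin fluorescence. Polyreactivity labels come from the gate of origin.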", "data": [{"sequence": "QVQLVESGGGLVQAGGSLRLSCAASGSILKFNAMGWYRQAPGKERELVAAITRGTNTYYADSVKGRFTISRDNAKNTVYLQMNSLKPEDSAVYYCAARQPYNAFGYFYWGQGTQVTVSS", "values": [{"measurement": "polyreactivity (PSR sort gate)", "value": "low polyreactivity"}]}, {"sequence": "QVQLVESGGGLVQAGGSLRLSCAASGSILKYYAMGWYRQAPGKERELLAAISWSGGRTYYADSVKGRFTISRDNAKNTVYLQMNSLKPEDTAVYYCAAENYGSGSWHGPEYDYWGQGTQVTVSS", "values": [{"measurement": "polyreactivity (PSR sort gate)", "value": "low polyreactivity"}]}, {"sequence": "QVQLVESGGGLVQAGGSLRLSCAASGSILKYYAMGWYRQAPGKERELVAAISRSGGSTYYADSVKGRFTISRDNAKITVYLQMTSLKPEDTAVYYCAAYYNLPYHGSDYWGQGTQVTVSS", "values": [{"measurement": "polyreactivity (PSR sort gate)", "value": "high polyreactivity"}]}, {"sequence": "QVQLVESGGGLVQAGGSLRLSCAASGSILLGYAMGWYRQAPGKERELVAAITFRGGSTYYADSVKGRFTISRDNAKNTVYLQMNSLKPEATAVYYCAKVWWLYSSTYLRYYWGQGTQVTVSS", "values": [{"measurement": "polyreactivity (PSR sort gate)", "value": "low polyreactivity"}]}, {"sequence": "QVQLVESGGGLVQAGGSLRLSCAASGSILLRYAMGWYRQAPGKERELVAAIRTIGASTYYADSVKGRFTISRDNAKNTVYLQMNSLKPEDTAVYYCNAYLAEVLPLGKGRLYDYWGQGTQVTVSS", "values": [{"measurement": "polyreactivity (PSR sort gate)", "value": "low polyreactivity"}]}, {"sequence": "QVQLVESGGGLVQAGGSLRLSCAASGSILPRYGMGWYRQAPGKEREFVAAISWRGGRTYYADSVKGRFTISRDNAKNTVYLQMNSLKPEDTAVYYCAARANIYTRLDYWGQGTQVTVSS", "values": [{"measurement": "polyreactivity (PSR sort gate)", "value": "high polyreactivity"}]}, {"sequence": "QVQLVESGGGLVQAGGSLRLSCAASGSILRPNAMGWYRQAPGKERELVAAITTTGGSTYYADSVKGRFTISRDNAKNTVYLLMNRLKPEDTAVYYCAAEYVYLYYLYLYYYWGQGTQVTVSS", "values": [{"measurement": "polyreactivity (PSR sort gate)", "value": "high polyreactivity"}]}, {"sequence": "QVQLVESGGGLVQAGGSLRLSCAASGSILRQYAMGWYRPAPGKERELVAAINSGGSTNYADSVKGRITISRDNAKNTVYLQMNSLKPEDTAVYFCAADWSLYSHEFDYWGQGTQVTVSS", "values": [{"measurement": "polyreactivity (PSR sort gate)", "value": "high polyreactivity"}]}, {"sequence": "QVQLVESGGGLVQAGGSLRLSCAASGSILRRYAMGWYRQAPGKERELVAAINYSGGNTYYADSVKGRFTISRDNAKNTVYLQMNSLKPEDTAVYFCAAYYGPYSARYYGGYEYWGQGTQVTVSS", "values": [{"measurement": "polyreactivity (PSR sort gate)", "value": "high polyreactivity"}]}, {"sequence": "QVQLVESGGGLVQAGGSLRLSCAASGSILSGYAMGWYRQAPGKERELVAAISWSGGSTYYADSVKGRFTISRDNAKNTVYLQMNSLKPEDTAVYYCAAASVPWGGYYWGQGTQVTVSS", "values": [{"measurement": "polyreactivity (PSR sort gate)", "value": "low polyreactivity"}]}, {"sequence": "QVQLVESGGGLVQAGGSLRLSCAASGSILSHYAMGWYRQAPGKERELVAAITTRGGSTYYADSVKGRFTISRDNAKNTVFLQMNSLKPEDTAVYYCAARGGVDSAYYGYWGQGTQVTVSS", "values": [{"measurement": "polyreactivity (PSR sort gate)", "value": "high polyreactivity"}]}, {"sequence": "QVQLVESGGGLVQAGGSLRLSCAASGSILSLYTMGWYRQAPGKERELVAAITRSGGSTYYADSVKGRFTISRDNAKNTVYLQMNSLKPEDTAVYYCAATREVTSYSSAPRVYYWGQGTQVTVSS", "values": [{"measurement": "polyreactivity (PSR sort gate)", "value": "high polyreactivity"}]}, {"sequence": "QVQLVESGGGLVQAGGSLRLSCAASGSILSSYAMGWYRQAPGKERELVAAISKSGTRTYYADSVKGRFTISRDNAKNTVYLQMNSLKPEDTAVYYCAVVYYGSIFVLEYDYWGQGTQVTVSS", "values": [{"measurement": "polyreactivity (PSR sort gate)", "value": "high polyreactivity"}]}, {"sequence": "QVQLVESGGGLVQAGGSLRLSCAASGSILSYNAMGWSRQAPGKERELVATITGTGGSTRYADSVKGRFTISRDNAKNTVYLQMNSLKPEDTAVYYCATAAWWYYRIYHEFGYWGQGTQVTVSS", "values": [{"measurement": "polyreactivity (PSR sort gate)", "value": "high polyreactivity"}]}, {"sequence": "QVQLVESGGGLVQAGGSLRLSCAASGSILSYYAMGWYRLAPGKEREFVAAISSGGGTYYADSVKGRFTISRDNAKNTVYLQMNSLKPEDTAVYYCNAVHASSIQFEYWGQGTKVTVSS", "values": [{"measurement": "polyreactivity (PSR sort gate)", "value": "low polyreactivity"}]}, {"sequence": "QVQLVESGGGLVQAGGSLRLSCAASGSILSYYAMGWYRQAPGKERELVAAISSTGSTNYADSVKGRFTISRDNAKNTLYLQMNSLKPEDTAVYYCATDGDPYADEGGYWGQGTQVTVSS", "values": [{"measurement": "polyreactivity (PSR sort gate)", "value": "high polyreactivity"}]}, {"sequence": "QVQLVESGGGLVQAGGSLRLSCAASGSILTAYAMGWYRQAPGKERELVAAISRGDITKYADSVKGRFTISRDNAKNTVYLQMNRLKPEDTAVYYCAARVPRYSDSTRGRADYYWGQGTQVTVSS", "values": [{"measurement": "polyreactivity (PSR sort gate)", "value": "high polyreactivity"}]}]}
